Among the data in the supplement of paper PMC12042874 are amyloid nucleation score values, retold here.

± gives the uncertainty stated by the source.

The series is described as follows: amyloid nucleation score (Sup35N fusion, yeast selection) (log enrichment); library NNK3; higher = more nucleation; inactive = no reads after selection. The method, boiled down: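 Peptides of 20 random codons fused to Sup35N were expressed in psi-negative yeast, induced 24 hours with 100 μM copper sulfate, then grown 7 days at 30°C on medium lacking adenine and uracil. Input and output plasmid inserts were Illumina-sequenced. Nucleation score is the DiMSum log enrichment of output over input reads, centred on the mode score of non-aggregating sequences, excluding sequences with under 100 input reads. Random libraries had three technical output replicates.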
Take CCAYFVGLGCVQLTKWFSLL: the amyloid nucleation score entry is “inactive”. As for VSNCFTSLQT, the entry is “inactive”; as for TPAMYFPIYFSAHGHLYLFY, “inactive”.

For the substance MFDIVNKTSELL, the amyloid nucleation score result is “inactive”. The result for YIFVSRIIGVPFRLVQVTSG reads “inactive”; that for FLLIIHHST, -0.126 ± 0.6; that for GKYKFSLF, “inactive”. As for CMMPLNATRYVYLPNAAHSL, the entry is “inactive”; as for VVGFDSCGRWEVNVSYDSGT, “inactive”. The result for QLLHDGNLNVGIFMRYSQGR reads 1.29 ± 0.093; that for HRDYFFRPTFL, “inactive”; that for FNMYFCVIWLCDSFLIMCG, “inactive”. As to NPKLG, the amyloid nucleation score entry was “inactive”. As for AYADHHYRAGLRFPAGEVYW, the entry is “inactive”; as for RLATYALSFPSS, “inactive”; as for DSCTDEENM, “inactive”. The result for RVPYR reads “inactive”; that for MSMFYSNRHNPVKRTSGTGL, “inactive”; that for RSTVYWFWRSSELLALRLHR, “inactive”.

Consider IADCVLIN, for which the amyloid nucleation score result is “inactive”. For the substance FNSGCYT, the amyloid nucleation score entry was “inactive”. As for TDSLFGVIDHFYENRFW, the figure is -0.845 ± 1.4. In the case of VSCDEMHKINFYLKANVVLV, the amyloid nucleation score entry was “inactive”. With TFWMPD, the amyloid nucleation score is -0.55 ± 1.3.

Take TEHKVSFPHFVKYKPSLSSY: the amyloid nucleation score entry was “inactive”.

As for SSSTFPSSKIDYGTIR, the amyloid nucleation score result was “inactive”.

Regarding CRIPALTTTMLITNG, the amyloid nucleation score entry was “inactive”. For the substance MVHPDTRKRQTRGTG, the amyloid nucleation score entry is “inactive”. The result for HCCVLSARGWLIGSMRWPHC reads “inactive”; that for KVNTLRVEDIWTSQAFVCMV, “inactive”; that for MEVFFTSTFIGEFNRVCDTY, “inactive”. For the substance RIIIVYR, the amyloid nucleation score entry is “inactive”. As for IICIYKIPKFTTRKLILRVY, the amyloid nucleation score result is “inactive”. As for RSGLHVEGLRSLHRGKVGPC, the entry is “inactive”; as for RRFVVGYRDLMMRFIVRHGE, 0.403 ± 0.24; as for VTVSHCRIRFFRLESDDGLC, -0.218 ± 0.88. The result for SHSLSVGGFYSPDFRNYTCT reads 1.98 ± 0.082; that for GEVNTAFYSWPAMPVLADYG, “inactive”; that for NSFVASEFKRLYRQWSRVHE, “inactive”. As for QLLFPGLWESATRILCENFM, the entry is “inactive”; as for SCKLSHFEVTMECLEYFWMM, “inactive”.

Take LSFHP: the amyloid nucleation score result was “inactive”. The result for LWPRRADVKQASRQPDYQCV reads -0.727 ± 1; that for VAFSFYFNSILVSVTRIVGS, 0.773 ± 0.15. As for ILFLSLRSYSLNGFSDIMYY, the entry is “inactive”.

Regarding WMGSVCSFRSIPCSMSTLR, the amyloid nucleation score entry was “inactive”. In the case of RSHECGGSLMFVKLGCG, the amyloid nucleation score entry was “inactive”.

On to RVHFALYSV, for which the amyloid nucleation score was determined as 1.65 ± 0.062. As for FILRDHRLSLSNCAMKCPQG, the entry is “inactive”. The result for ILKMFTSGYCRVLWDLVVMV reads “inactive”. On to LPYYCSIDAVMCREPTGLGS, for which the amyloid nucleation score result is “inactive”. The result for YDRAKSQRIRAQPESTSSVL reads 0.593 ± 0.19; that for HLFSNTWYTK, “inactive”; that for HCQSRRWTKFLYMGWLPSSS, 1.55 ± 0.1. As for RRSSARGIRYMYSLNCNGEL, the amyloid nucleation score entry was “inactive”. On to SASLLN, for which the amyloid nucleation score entry was “inactive”. The result for ECCDFSGCRCTSS reads -0.498 ± 0.91; that for CSDNILEHYTSFYWLMSVHR, “inactive”; that for KFLITETGSEL, “inactive”.

On to SKRNPRMRSQLFIGDYFAYP, for which the amyloid nucleation score is -1.13 ± 1.9. As for CPSWCYFNRGDV, the figure is 1.39 ± 0.091. For GQNSRPGLANTLLYPEVLIR, the amyloid nucleation score result was “inactive”. TDVMVYHPFL: the amyloid nucleation score result is “inactive”. For KPVYYQCLENISSFEC, the amyloid nucleation score result is “inactive”. The result for GLCPYSIQFFGGRSDHNW reads 1.24 ± 0.15; that for INHFLFYANNRYRRHILVGC, “inactive”. In the case of MLHLYQIIMRPYTLSGWWYY, the amyloid nucleation score entry was “inactive”.

Regarding FFPCTGVRHSRDIAVV, the amyloid nucleation score result is “inactive”. The result for RSSFKG reads “inactive”; that for YLCTGQAGCAYMPRS, “inactive”. As for FCLRLTYVRS, the figure is 0.757 ± 0.22. The result for FVIFW reads “inactive”; that for TLDILLE, “inactive”. For RYGFADSYMLFLFRYTPSSG, the amyloid nucleation score entry is “inactive”. As for GTQLFFYMMCARFKDNL, the figure is 0.195 ± 0.38; as for PKQSIDCCHNWGDGNCFIVV, “inactive”. As for AATYTTYHLESSNVYSFNFW, the figure is 2.96 ± 0.048; as for IDVTQERRVGDSTCALGTH, -0.168 ± 0.73. As for MWSVLIRSTIDYAVPNWSRF, the entry is “inactive”; as for MIDIKCNERAFSEYRFWCRW, 0.141 ± 0.42; as for FHWYFAVSYTSYNMLSVWFV, “inactive”. For KLYYIVRCEFCRDCKMAWGN, the amyloid nucleation score is 1.29 ± 0.094. As for HSRTYFQSISGWISCLMSTL, the figure is 1.13 ± 0.11.

Consider GLPLVACLMSEQYCL, for which the amyloid nucleation score result is “inactive”. As for LHASMLLLRNNRSRS, the entry is “inactive”. The result for SHYLLMFLVSDTLV reads “inactive”. On to TWVWGKFFGFLNSDISDVRH, for which the amyloid nucleation score result was “inactive”.

LSDYEDIAISFIKYRCSSLN displayed an amyloid nucleation score of 1.42 ± 0.11. LEASESGIVEVPQPNYCITP: the amyloid nucleation score entry is “inactive”. As for SSLTSNCPRKALKREVVRHW, the entry is “inactive”; as for SSRVNKGEVARLVVSIPIIH, “inactive”. As for HAGATL, the entry is “inactive”; as for LEVWSRRYWCHRLFNSIAMM, “inactive”; as for IQLICEAIAGFLYNVIFVVL, “inactive”. For the substance MSIMVASRLALARNVPLQKV, the amyloid nucleation score entry is “inactive”.

Consider LAAEFTFMRPARGYFGNKVG, for which the amyloid nucleation score result was “inactive”. The result for WVVKKVPDGRFLFVDCVCGI reads “inactive”. As for VGGLSSDPTADISFVVVFQD, the figure is 0.089 ± 0.71; as for RRKLRGALTVEMVFSPVYRR, “inactive”; as for KSDVS, “inactive”. As for RDNLLGLTGNTTGDFTPGTV, the entry is “inactive”.

IIVMDCNGKLNGINHWVRVD: the amyloid nucleation score result was “inactive”.

Regarding YYFDDVTLKASTRDRVLARG, the amyloid nucleation score result is “inactive”. The result for NVVCSTARIEKPMGVLCFMF reads 1.92 ± 0.092. Regarding IVKRFHYYMSVRKLMSKFGL, the amyloid nucleation score result was “inactive”. The result for QTQKLFQYI reads “inactive”. On to ANSSRDMCSLLVLVRGTQ, for which the amyloid nucleation score was -0.385 ± 0.96. On to CCITFLLSDLAMSYYVRYNR, for which the amyloid nucleation score is 0.484 ± 0.12. As for LCTKGYWFKAPNYLLSKLCF, the entry is “inactive”; as for WIMWNMRAKNLKLLPARARV, “inactive”. With ARLEMVFLPSPIFVNRPGNA, the amyloid nucleation score entry is “inactive”. The result for SMKSGSATCGIN reads “inactive”. As for KSSTNMEMRMSHLGLLIGEV, the entry is “inactive”; as for NAGYCVRTRSLGESLSIVRK, “inactive”; as for STKSSLRYNLEQLPDLLKIV, “inactive”. The result for VKISPNAWALQLR reads “inactive”. In the case of IGMTRGMGLVVFYSRYMWDD, the amyloid nucleation score result was “inactive”.

Substance SKLLIPHNNGRYSFFWSIGM yielded an amyloid nucleation score of 2.04 ± 0.078. The result for GYESLYRQHLYDSSLCWESR reads “inactive”; that for HQISFSM, “inactive”.

As for VWSVASYPSGPGKFCGGMTE, the amyloid nucleation score entry was “inactive”.

Regarding NLINTVKYLNFDGLTAFSSQ, the amyloid nucleation score entry was “inactive”.

Consider PERWSMPYIPSDLYKCLLNQ, for which the amyloid nucleation score result was “inactive”. For KSNVLP, the amyloid nucleation score entry was “inactive”. The result for HEVLVVIRNLFDFVVFCVLQ reads “inactive”. The result for KGKITCM reads “inactive”. The result for FTFCTCAKSAWTGLGLQGKI reads “inactive”; that for REVYLMRSEPWRLLFDGKYR, “inactive”; that for QSSIVWCVSFIKSRCDFSIC, “inactive”. Turning to WSRHSTMGTRPEKQVLWPAG, the amyloid nucleation score entry was “inactive”. The result for CEFTYGKDAKVRTEAYHAYW reads “inactive”.
